Earlier results as cited in publication PMC12071589.

Molecular target: TROP2 (Homo sapiens) (UniProt P09758)
Sequence (P09758 27-274): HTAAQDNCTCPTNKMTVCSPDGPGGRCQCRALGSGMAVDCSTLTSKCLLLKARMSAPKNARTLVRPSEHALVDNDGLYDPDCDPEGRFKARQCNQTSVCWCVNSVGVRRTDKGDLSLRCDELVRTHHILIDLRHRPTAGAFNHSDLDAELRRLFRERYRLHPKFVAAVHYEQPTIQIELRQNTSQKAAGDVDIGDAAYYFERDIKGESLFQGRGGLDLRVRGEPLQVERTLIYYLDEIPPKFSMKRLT

For sacituzumab, the Kd is given as 0.26 nM.
